Experimental data as given in patent publication US20250019442A1 (LANOVA MEDICINES, published 2025).

Tests used:
cynomolgus PD1 = target: T1, cynomolgus PD1 (cynomolgus, UniProt B0LAJ3 25-170); assay: ELISA, cynomolgus PD1 coated, anti-human IgG-HRP detection
T1 construct: Recombinant protein for ELISA; also called cynomolgus PD1 protein
Protocol: (§1) To evaluate PD1 binding activity of the test bispecific antibodies, human PD1 and cynomolgus PD1 diluted in PBS were coated on a microplate respectively at 4° C. overnight. Three-fold dilution of test antibodies starting from 100 nM were added to each well and incubated for 1 hours at 25° C. Then, the plates were washed with ELISA washing buffer (1×DPBS with 0.5% Tween-20) and incubated with peroxidase conjugated anti-human IgG secondary antibody for 60 minutes at 25° C. After washed four times with ELISA washing buffer, the plates were detected by TMB-ELISA substrate solution, then stopped by ELISA stopping solution and analyzed by microplate reader at OD450 nm.

[1] = target: T2, human PD-1 overexpressed on cells (human, UniProt Q15116 25-288); assay: flow cytometry on CHO-K1 cells overexpressing human PD-1; column headed OD450 but the text says MFI of PE; design: unit not given here
T2 construct: whole, on cells; also called CHO-K1 cells overexpressing human PD-1; Jurkat-PD1 cells
Protocol: (§2) To further determine PD-1 binding activity of the bispecific antibodies, CHO-K1 cells overexpressing human PD-1 were incubated with different concentrations of anti-PD1-VEGF bispecific antibodies and reference antibodies at 4° C. for 30 minutes. Then, the cells were washed twice with FACS buffer and stained with PE conjugated secondary antibody at 4° C. for 30 minutes. After wash twice with FACS buffer, MFI of PE was analyzed by a NovoCyte flow cytometer.

[2] = target: T2, human PD-1 overexpressed on cells; assay: cell-based or functional assay
[3] = target: T2, human PD-1 overexpressed on cells; assay: flow cytometry on CHO-K1 cells overexpressing human PD-1, PE secondary antibody
Protocol: as §2

human PD1 = target: T3, human PD1 (human, UniProt Q15116 25-167, limits assumed); assay: ELISA, human PD1 coated, anti-human IgG-HRP detection
T3 construct: Recombinant protein for ELISA; also called human PD1 protein
Protocol: as §1

T2 sequence (Q15116 25-288): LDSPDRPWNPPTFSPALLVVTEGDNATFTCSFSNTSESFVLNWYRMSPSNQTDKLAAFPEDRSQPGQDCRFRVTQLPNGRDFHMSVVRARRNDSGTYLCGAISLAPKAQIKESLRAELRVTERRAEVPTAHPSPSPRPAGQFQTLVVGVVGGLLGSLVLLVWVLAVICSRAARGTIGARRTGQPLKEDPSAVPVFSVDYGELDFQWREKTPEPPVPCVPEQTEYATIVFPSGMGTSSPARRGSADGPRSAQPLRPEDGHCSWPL
T1 sequence (B0LAJ3 entry or part of it limits assumed, form in doubt): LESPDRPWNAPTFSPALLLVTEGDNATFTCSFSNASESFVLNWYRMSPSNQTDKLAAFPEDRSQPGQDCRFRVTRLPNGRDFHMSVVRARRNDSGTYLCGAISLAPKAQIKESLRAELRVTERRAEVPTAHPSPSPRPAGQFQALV
T3 sequence (Q15116 25-167 limits assumed): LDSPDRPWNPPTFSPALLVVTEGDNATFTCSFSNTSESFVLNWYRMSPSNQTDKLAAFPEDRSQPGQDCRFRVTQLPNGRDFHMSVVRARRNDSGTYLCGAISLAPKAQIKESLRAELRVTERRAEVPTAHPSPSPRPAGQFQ

Row | Binder | EC50 (cynomolgus PD1) [nM] | Top (OD450) (cynomolgus PD1) | Top (OD450) [1] | EC50 (nM), PD1 blocking activity (PD1 reporter gene assay) [2] [nM] | Top (RLU), PD1 blocking activity (PD1 reporter gene assay) [2] [RLU] | EC50 [3] [nM] | EC50 (human PD1) [nM] | Top (OD450) (human PD1)
1 | Pembrolizumab (antibody, V domains shown) VH: QVQLVQSGVEVKKPGASVKVSCKASGYTFTNYYMYWVRQAPGQGLEWMGGINPSNGGTNFNEKFKNRVTLTTDSSTTTAYMELKSLQFDDTAVYYCARRDYRFDMGFDYWGQGTTVTVSS VL: EIVLTQSPATLSLSPGERATLSCRASKGVSTSGYSYLHWYQQKPGQAPRLLIYLASYLESGVPARFSGSGSGTDFTLTISSLEPEDFAVYYCQHSRDLPLTFGGGTKVEIKR | 0.057 | 1.17 | – | – | – | – | – | –
2 | VH18 (anti-PD-1 VHH) (VHH, also called VH18 VHH; anti-PD1 parental antibody VH18) VHH: EVQLVESGGGLVQPGGSLRLSCAVSGNIYNRNFMGWFRQAPGKGREGVSAIYTGTSRTYYADSVKGRFTISRDNAKNTVYLQMNSLRPEDTAVYYCAADLRDGFWDTGVWNTWGQGTLVTVSS | 0.151 | 1.56 | 963000 | 11.2 | 191000 | 2.35 | 0.083 | 1.75
3 | VH8M1 (anti-PD-1 VHH) (VHH, also called VH8M1 VHH; anti-PD-1 parental nanobody) VHH: EVQLVESGGGLVQPGGSLRLSCAVSGNIYNRNFMGWFRQAPGKGLEGVSAIYTGTSRTYYADSVKGRFTISRDNSKNTVYLQMNSLRAEDTAVYYCAADLREGFWDTGVWNTWGQGTLVTVSS | – | – | 448000 | 13.3 | 201000 | 0.759 | – | –
